Test results published in article PMC8938434, “Atomic resolution dynamics of cohesive interactions in phase-separated Nup98 FG domains” (Nature Communications, 2022).

Experiments:
[1] = target: wild-type Tetrahymena thermophila MacNup98A (Mac98A) FG domain (Tetrahymena thermophila); experiment: partition of fluorescent probes into FG particles (confocal laser scanning microscopy); FG particles mixed with permeation probes (2 μM Alexa488-labelled NTF2 and 10 μM mCherry in assay buffer, 15 μl + 15 μl); 20 mM NaPi pH 6.8, 150 mM NaCl, 5 mM DTT; 21 °C; partition coefficient = signal inside FG phase: signal in buffer
prf.GLFG_(52 × 12) = target: T1, prf.GLFG_(52 × 12); experiment: partition of Atto488-coupled FG domains into FG particles (confocal laser scanning microscopy); 20 μM unlabelled prf.GLFG_(52 × 12) premixed with 0.5 μM Atto488-labelled species (GAFG: 3 μM); 20 mM NaPi pH 6.8, 150 mM NaCl, 5 mM DTT; 21 °C; apparent partition coefficient = Atto488 signal IN: OUT of the FG particles; conditions: both partners purified
T1 construct: engineered from the Tetrahymena thermophila MacNup98A FG domain; plasmid pSNG064; Isotope-labelled (15N, 13C) for NMR; also called perfect repeat; source: E. coli, inclusion bodies, Ni(II) chelate column, tag cut off with bdSENP1 protease, lyophilized; not shown: His14-ZZ-scSUMO, N-terminal, cleaved
T1 chain: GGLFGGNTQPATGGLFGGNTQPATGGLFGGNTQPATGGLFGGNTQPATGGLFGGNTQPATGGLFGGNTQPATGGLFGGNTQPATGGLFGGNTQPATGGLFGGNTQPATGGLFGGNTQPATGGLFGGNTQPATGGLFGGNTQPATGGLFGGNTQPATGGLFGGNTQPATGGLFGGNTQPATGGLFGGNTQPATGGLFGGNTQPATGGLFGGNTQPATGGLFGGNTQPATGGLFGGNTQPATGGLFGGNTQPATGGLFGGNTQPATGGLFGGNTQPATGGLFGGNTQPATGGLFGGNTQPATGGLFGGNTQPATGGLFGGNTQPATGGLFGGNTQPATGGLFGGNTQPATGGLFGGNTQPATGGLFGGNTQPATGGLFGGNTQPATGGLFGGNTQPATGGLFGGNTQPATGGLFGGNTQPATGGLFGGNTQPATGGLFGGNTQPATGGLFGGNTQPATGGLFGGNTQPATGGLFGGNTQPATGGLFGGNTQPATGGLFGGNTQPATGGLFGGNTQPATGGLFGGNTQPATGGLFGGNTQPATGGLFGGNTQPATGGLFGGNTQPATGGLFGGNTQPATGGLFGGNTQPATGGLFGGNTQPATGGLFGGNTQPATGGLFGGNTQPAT

[2] = target: the molecule itself; experiment: MAS NMR, 1H-13C cross-polarization of the FG phase; FG phase from u-[13C,15N]-labelled protein, 36 °C, 20 kHz MAS; cross-polarization against direct excitation
[3] = target: the molecule itself; experiment: co-sedimentation; centrifugation assay of phase separation of GLFG_(52 × 12) variants at 25 °C, [FG domain] = 10 μM, [NaCl] = 150 mM, 20 mM NaPi pH 6.8, 5 mM DTT; repeated at 100 μM for GAFG, GLLG and GLAG; critical concentration = concentration of the supernatant

Molecule: nuclear transport receptor NTF2 (labelled with Alexa Fluor 488) (from UniProt P61970 1-127) (natural protein)
- partition coefficient [1]: 2000

B1: Atto488-coupled GLLG//L_(52 × 12) (other)
chain: GSGLLGNTGLAPAGGLLGNTQLQQGGGLLGQPQLTQGGGLLGQTGLTTGGGLLGGATLTAPGGLLGGGGLNPTGGLLGGNNLQQTGGLLGQGTLQTGGGLLGAPQLNQGGGLLGGGTLTTGGGLLGANTLTGGGGLLGGPSLPTTAGLLGSNNLTTGGGLLGQPALTNNGGLLGGQTLNQASGLLGANNLPPTNGLLGNNNLPQTAGLLGGATLTGNTGLLGGANLTGGGGLLGNNTLNPTGGLLGATNLAGGGGLLGGGALTGGGGLLGGGNLQTGGGLLGTANLTTAGGLLGGGNLQPQNGLLGNNNLPATGGLLGQTNLAAPQGLLGGTNLNAASGLLGQKPLSANGVLTKPNEKNLCYAISNGTDFCIFELALTQRKLVKAGQLKPGAQAGGLLGQPALNTQGGLLGGGGLATTPGLLGGAQLNTTGGLLGGQNLQAGGGLLGAPNLAAATGLLGAGNLNTQGGLLGAKPLATGGGLLGQPALTQAGGLLGNTALPAGGGLLGGATLTPGGGLLGGNTLATGGGLLGGNTLGATGGLLGGQQLNNQGGLLGNTNLNTGGGLLGGATLTTGGGLLGGSTLATGGGLLGGASLPAAGGLLGGAALQQNSGLLGGATLGQTGGLLGGATLQQGGGLLGQTALNPGGGLLGAANLTTQPGLLGGNNLAATTSC
modifications: Atto488 (coupled)
- partition coefficient (prf.GLFG_(52 × 12)): 110

B2: Atto488-coupled GAFG_(52 × 12) (other)
chain: GSGAFGNTGGAPAGGAFGNTQTQQGGGAFGQPQQTQGGGAFGQTGATTGGGAFGGATNTAPGGAFGGGGGNPTGGAFGGNNNQQTGGAFGQGTTQTGGGAFGAPQNNQGGGAFGGGTTTTGGGAFGANTQTGGGGAFGGPSQPTTAGAFGSNNPTTGGGAFGQPANTNNGGAFGGQTNNQASGAFGANNQPPTNGAFGNNNKPQTAGAFGGATTTGNTGAFGGANNTGGGGAFGNNTNNPTGGAFGATNPAGGGGAFGGGATTGGGGAFGGGNTQTGGGAFGTANTTTAGGAFGGGNTQPQNGAFGNNNTPATGGAFGQTNNAAPQGAFGGTNNNAASGAFGQKPASANGVLTKPNEKNLCYAISNGTDFCIFELALTQRKLVKAGQLKPGAQAGGAFGQPAQNTQGGAFGGGGAATTPGAFGGAQNNTTGGAFGGQNTQAGGGAFGAPNNAAATGAFGAGNANTQGGAFGAKPAATGGGAFGQPAQTQAGGAFGNTAQPAGGGAFGGATTTPGGGAFGGNTAATGGGAFGGNTQGATGGAFGGQQPNNQGGAFGNTNANTGGGAFGGATTTTGGGAFGGSTGATGGGAFGGASQPAAGGAFGGAAPQQNSGAFGGATAGQTGGAFGGATQQQGGGAFGQTASNPGGGAFGAANATTQPGAFGGNNQAATTSC
modifications: Atto488 (coupled)
- partition coefficient (prf.GLFG_(52 × 12)): 4

B3: Pro-free prf.GLFG_(52 × 12) (other)
chain: GGLFGGATNSQTGGLFGGATNSQTGGLFGGATNSQTGGLFGGATNSQTGGLFGGATNSQTGGLFGGATNSQTGGLFGGATNSQTGGLFGGATNSQTGGLFGGATNSQTGGLFGGATNSQTGGLFGGATNSQTGGLFGGATNSQTGGLFGGATNSQTGGLFGGATNSQTGGLFGGATNSQTGGLFGGATNSQTGGLFGGATNSQTGGLFGGATNSQTGGLFGGATNSQTGGLFGGATNSQTGGLFGGATNSQTGGLFGGATNSQTGGLFGGATNSQTGGLFGGATNSQTGGLFGGATNSQTGGLFGGATNSQTGGLFGGATNSQTGGLFGGATNSQTGGLFGGATNSQTGGLFGGATNSQTGGLFGGATNSQTGGLFGGATNSQTGGLFGGATNSQTGGLFGGATNSQTGGLFGGATNSQTGGLFGGATNSQTGGLFGGATNSQTGGLFGGATNSQTGGLFGGATNSQTGGLFGGATNSQTGGLFGGATNSQTGGLFGGATNSQTGGLFGGATNSQTGGLFGGATNSQTGGLFGGATNSQTGGLFGGATNSQTGGLFGGATNSQTGGLFGGATNSQTGGLFGGATNSQTGGLFGGATNSQTGGLFGGATNSQTGGLFGGATNSQT
notes: also called thioflavin-T-positive, proline-free variant of prf.GLFG_(52 × 12)
- binding result [2]: binds

B4: Atto488-coupled GLFG_(52 × 12) (other)
chain: GSGLFGNTGGAPAGGLFGNTQTQQGGGLFGQPQQTQGGGLFGQTGATTGGGLFGGATNTAPGGLFGGGGGNPTGGLFGGNNNQQTGGLFGQGTTQTGGGLFGAPQNNQGGGLFGGGTTTTGGGLFGANTQTGGGGLFGGPSQPTTAGLFGSNNPTTGGGLFGQPANTNNGGLFGGQTNNQASGLFGANNQPPTNGLFGNNNKPQTAGLFGGATTTGNTGLFGGANNTGGGGLFGNNTNNPTGGLFGATNPAGGGGLFGGGATTGGGGLFGGGNTQTGGGLFGTANTTTAGGLFGGGNTQPQNGLFGNNNTPATGGLFGQTNNAAPQGLFGGTNNNAASGLFGQKPASANGVLTKPNEKNLCYAISNGTDFCIFELALTQRKLVKAGQLKPGAQAGGLFGQPAQNTQGGLFGGGGAATTPGLFGGAQNNTTGGLFGGQNTQAGGGLFGAPNNAAATGLFGAGNANTQGGLFGAKPAATGGGLFGQPAQTQAGGLFGNTAQPAGGGLFGGATTTPGGGLFGGNTAATGGGLFGGNTQGATGGLFGGQQPNNQGGLFGNTNANTGGGLFGGATTTTGGGLFGGSTGATGGGLFGGASQPAAGGLFGGAAPQQNSGLFGGATAGQTGGLFGGATQQQGGGLFGQTASNPGGGLFGAANATTQPGLFGGNNQAATSC
modifications: Atto488 (coupled)
- partition coefficient (prf.GLFG_(52 × 12)): > 1000

B5: Atto488-coupled GXFG//L_(52 × 12) (other)
chain: GSGGFGNTGLAPAGGTFGNTQLQQGGGQFGQPQLTQGGGAFGQTGLTTGGGNFGGATLTAPGGGFGGGGLNPTGGNFGGNNLQQTGGTFGQGTLQTGGGNFGAPQLNQGGGTFGGGTLTTGGGQFGANTLTGGGGQFGGPSLPTTAGPFGSNNLTTGGGNFGQPALTNNGGNFGGQTLNQASGQFGANNLPPTNGKFGNNNLPQTAGTFGGATLTGNTGNFGGANLTGGGGNFGNNTLNPTGGPFGATNLAGGGGTFGGGALTGGGGTFGGGNLQTGGGTFGTANLTTAGGTFGGGNLQPQNGTFGNNNLPATGGNFGQTNLAAPQGNFGGTNLNAASGAFGQKPLSANGVLTKPNEKNLCYAISNGTDFCIFELALTQRKLVKAGQLKPGAQAGGQFGQPALNTQGGAFGGGGLATTPGNFGGAQLNTTGGTFGGQNLQAGGGNFGAPNLAAATGAFGAGNLNTQGGAFGAKPLATGGGQFGQPALTQAGGQFGNTALPAGGGTFGGATLTPGGGAFGGNTLATGGGQFGGNTLGATGGPFGGQQLNNQGGAFGNTNLNTGGGTFGGATLTTGGGGFGGSTLATGGGQFGGASLPAAGGPFGGAALQQNSGAFGGATLGQTGGQFGGATLQQGGGSFGQTALNPGGGAFGAANLTTQPGQFGGNNLAATTSC
modifications: Atto488 (coupled)
- partition coefficient (prf.GLFG_(52 × 12)): > 1000

B6: GLLG_(52 × 12) (other)
chain: GSGLLGNTGGAPAGGLLGNTQTQQGGGLLGQPQQTQGGGLLGQTGATTGGGLLGGATNTAPGGLLGGGGGNPTGGLLGGNNNQQTGGLLGQGTTQTGGGLLGAPQNNQGGGLLGGGTTTTGGGLLGANTQTGGGGLLGGPSQPTTAGLLGSNNPTTGGGLLGQPANTNNGGLLGGQTNNQASGLLGANNQPPTNGLLGNNNKPQTAGLLGGATTTGNTGLLGGANNTGGGGLLGNNTNNPTGGLLGATNPAGGGGLLGGGATTGGGGLLGGGNTQTGGGLLGTANTTTAGGLLGGGNTQPQNGLLGNNNTPATGGLLGQTNNAAPQGLLGGTNNNAASGLLGQKPASANGVLTKPNEKNLCYAISNGTDFCIFELALTQRKLVKAGQLKPGAQAGGLLGQPAQNTQGGLLGGGGAATTPGLLGGAQNNTTGGLLGGQNTQAGGGLLGAPNNAAATGLLGAGNANTQGGLLGAKPAATGGGLLGQPAQTQAGGLLGNTAQPAGGGLLGGATTTPGGGLLGGNTAATGGGLLGGNTQGATGGLLGGQQPNNQGGLLGNTNANTGGGLLGGATTTTGGGLLGGSTGATGGGLLGGASQPAAGGLLGGAAPQQNSGLLGGATAGQTGGLLGGATQQQGGGLLGQTASNPGGGLLGAANATTQPGLLGGNNQAATSC
- critical concentration for phase separation [3]: > 100 µM
